Here are results for one molecule from paper PMC4706430 (2016).

For the assay, the target named is kallikrein (human, UniProt P03952 20-638).
Sequence of kallikrein (P03952 20-638): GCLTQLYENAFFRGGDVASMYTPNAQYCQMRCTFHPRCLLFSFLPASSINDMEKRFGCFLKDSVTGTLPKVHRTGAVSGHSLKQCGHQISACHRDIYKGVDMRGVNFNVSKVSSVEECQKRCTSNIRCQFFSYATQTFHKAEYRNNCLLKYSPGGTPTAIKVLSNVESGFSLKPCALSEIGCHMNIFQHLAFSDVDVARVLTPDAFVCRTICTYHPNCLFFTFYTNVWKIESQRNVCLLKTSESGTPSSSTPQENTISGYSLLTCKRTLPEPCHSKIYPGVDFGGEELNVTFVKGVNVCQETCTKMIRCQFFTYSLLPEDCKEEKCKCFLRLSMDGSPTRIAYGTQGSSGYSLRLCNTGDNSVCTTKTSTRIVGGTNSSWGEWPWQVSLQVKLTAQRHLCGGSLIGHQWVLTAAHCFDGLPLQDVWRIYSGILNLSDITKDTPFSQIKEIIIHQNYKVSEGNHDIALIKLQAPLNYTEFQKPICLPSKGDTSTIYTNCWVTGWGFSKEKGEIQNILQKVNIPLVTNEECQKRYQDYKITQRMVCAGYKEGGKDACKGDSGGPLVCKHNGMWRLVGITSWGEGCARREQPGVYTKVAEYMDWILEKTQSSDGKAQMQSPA

B1: Boophilin (natural protein)
chain: QRNGFCRLPADEGICKALIPRFYFNTETGKCTMFSYGGCGGNENNFETIEDCQKACGAPERVSDFEGADFKTGCEPAADSGSCAGQLERWFYNVRSGECETFVYGGCGGNDNNYESEEECELVCKNM
modifications: N-terminus blocked (Edman degradation)
What is called Ki is the equilibrium dissociation constant of an inhibitor or competing ligand from its target. Read a high Ki as weaker binding. For the molecule B1, affinity was put at a Ki of 919 nM.
